# Target: AAV-DJ capsid proteins VP2 and VP3 (capsid shell) (adeno-associated virus, AAV-DJ (engineered capsid))
# Assay: co-sedimentation
substance,measurement,value
AAV-DJ capsid protein VP1 (wild type) (natural protein),VP1 copies per 60-mer capsid (VP1 copies per 60-mer capsid),3

# Source: paper PMC10661864
